For three molecules, IC50, reduction in peak whole-cell Kv1.3 current results are on record in patent publication US20140221271A1.

The target of experiment [1] is Kv1.3 K+ ion channel. The experiment is described as follows: cell-based or functional assay.
The target in experiment [2] is Kv1.3 K+ ion channel. The experiment is described as follows: cell-based or functional assay. This is another data set of the same source.

Where two headings read alike, the source gives them in different places.

On to “ShK-186 ((phospho-Tyr)-AEEA-ShK-NH2) (peptide)”, for which the IC50, reduction in peak whole-cell Kv1.3 current at 40 mV (patch-clamp) with Kv1.3 K+ ion channel [1] was 69 pM.
In the case of RSCIDTIPKSRCTAFQCKHSMKYRLSFCRKTCGTC (modifications not checked) [ShK-221-gadolinium (DOTA-conjugate of ShK-198 coordinated with gadolinium)], in the experiment with Kv1.3 K+ ion channel [2], the IC50, reduction in peak whole-cell Kv1.3 current at 40 mV (patch-clamp) came out at 58.2 pM.
Same read-out and setting: in the case of RSCIDTIPKSRCTAFQCKHSMKYRLSFCRKTCGTC (modifications not checked) [ShK-221-indium (DOTA-conjugate of ShK-198 coordinated with indium)] it was 63.8 pM.
